Measured values taken from patent publication US20230322879A1.

Target: CC-chemokine receptor type 7 (CCR7) (UniProt P32248)
Assay: cell-based or functional assay

Sequence of UniProt P32248 (P32248 25-378 limits assumed): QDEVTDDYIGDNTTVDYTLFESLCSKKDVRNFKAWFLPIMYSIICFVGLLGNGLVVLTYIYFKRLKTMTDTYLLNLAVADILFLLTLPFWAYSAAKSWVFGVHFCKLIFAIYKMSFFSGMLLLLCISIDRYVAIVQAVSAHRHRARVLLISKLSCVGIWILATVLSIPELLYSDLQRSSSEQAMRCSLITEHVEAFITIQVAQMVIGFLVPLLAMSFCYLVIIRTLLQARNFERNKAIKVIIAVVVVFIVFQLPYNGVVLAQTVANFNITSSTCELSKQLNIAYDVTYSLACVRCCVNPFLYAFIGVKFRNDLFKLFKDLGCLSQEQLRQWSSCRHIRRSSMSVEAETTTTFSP

- Cells in the well of absorbent material (chemotaxis of PBMCs, agarose assay): 170 cells
- Chemotaxis percentage (PBMCs, agarose assay): 90%
- Chemotaxis rate (PBMCs, agarose assay): 153 cells
- cancer cell migration after 72 hours, wound healing assay: 90%
Substance: commercial CCL21 antigen (from UniProt O00585 24-134) (ligand)
- survival of MCF7 cancer cells, MTT assay, 7.5 µg/ml: 33%
